# B1: EHEE_rd3_0053 (parent)
# chain: TYTFKVDNKDQAKKAAKWAKKLGLSFQIEKHGDTFKITVQ
# Variants of: B1
# Assay: folding stability dG (cDNA display proteolysis); higher = more stable
# Settings: PBS, room temperature
row,Variant,folding stability dG [kcal/mol]
1,TYTFKVDNKDQAKKAAKWAKKLDLSFQIEKHGDTFKITVQ,1.02
2,TYTFKVDNKDQAKKAAKWAKKLPLSFQIEKHGDTFKITVQ,-0.809
3,TYTFKVDNKDQAKKAAKWAKKLNLSFQIEKHGDTFKITVQ,1.97
4,TYTFKVDNKDQAKKAAKWAKKLKLSFQIEKHGDTFKITVQ,1.85
5,TYTFKVDNKDQAKKAAKWAKKLFLSFQIEKHGDTFKITVQ,1.3
6,TYTFKVDNKDQAKKAAKWAKKLILSFQIEKHGDTFKITVQ,0.784
7,TYTFKVDNKDQAKKAAKWAKKLCLSFQIEKHGDTFKITVQ,1.62
8,TYTFKVDNKDQAKKAAKWAKKLYLSFQIEKHGDTFKITVQ,1.1
9,TYTFKVDNKDQAKKAAKWAKKLTLSFQIEKHGDTFKITVQ,0.657
10,TYTFKVDNKDQAKKAAKWAKKLWLSFQIEKHGDTFKITVQ,0.761
11,TYTFKVDNKDQAKKAAKWAKKLELSFQIEKHGDTFKITVQ,1.08
12,TYTFKVDNKDQAKKAAKWAKKLLLSFQIEKHGDTFKITVQ,1.24
13,TYTFKVDNKDQAKKAAKWAKKLALSFQIEKHGDTFKITVQ,1.23
14,TYTFKVDNKDQAKKAAKWAKKLQLSFQIEKHGDTFKITVQ,1.52
15,TYTFKVDNKDQAKKAAKWAKKLSLSFQIEKHGDTFKITVQ,1.42
16,TYTFKVDNKDQAKKAAKWAKKLHLSFQIEKHGDTFKITVQ,1.79
17,TYTFKVDNKDQAKKAAKWAKKLMLSFQIEKHGDTFKITVQ,1.59
18,TYTFKVDNKDQAKKAAKWAKKLRLSFQIEKHGDTFKITVQ,1.66
19,TYTFKVDNKDQAKKAAKWAKKLVLSFQIEKHGDTFKITVQ,0.722
20,TYTFKVDNKDQAKKAAKWPKKLGLSFQIEKHGDTFKITVQ,-0.671
21,TYTFKVDNKDQAKKAAKWQKKLGLSFQIEKHGDTFKITVQ,-0.184

row,Variant,folding stability dG [kcal/mol]
1,TYTFKVDNKDQAKKAAKWEKKLGLSFQIEKHGDTFKITVQ,-0.425
2,TYTFKVDNKDQAKKAAKWMKKLGLSFQIEKHGDTFKITVQ,2.79
3,TYTFKVDNKDQAKKAAKWNKKLGLSFQIEKHGDTFKITVQ,-0.253
4,TYTFKVDNKDQAKKAAKWTKKLGLSFQIEKHGDTFKITVQ,0.316
5,TYTFKVDNKDQAKKAAKWVKKLGLSFQIEKHGDTFKITVQ,1.47
6,TYTFKVDNKDQAKKAAKWFKKLGLSFQIEKHGDTFKITVQ,2.84
7,TYTFKVDNKDQAKKAAKWLKKLGLSFQIEKHGDTFKITVQ,3.38
8,TYTFKVDNKDQAKKAAKWSKKLGLSFQIEKHGDTFKITVQ,0.85
9,TYTFKVDNKDQAKKAAKWIKKLGLSFQIEKHGDTFKITVQ,2.44
10,TYTFKVDNKDQAKKAAKWHKKLGLSFQIEKHGDTFKITVQ,0.465
11,TYTFKVDNKDQAKKAAKWGKKLGLSFQIEKHGDTFKITVQ,0.902
12,TYTFKVDNKDQAKKAAKWKKKLGLSFQIEKHGDTFKITVQ,-0.645
13,TYTFKVDNKDQAKKAAKWRKKLGLSFQIEKHGDTFKITVQ,-0.112
14,TYTFKVDNKDQAKKAAKWYKKLGLSFQIEKHGDTFKITVQ,2.32
15,TYTFKVDNKDQAKKAAKWWKKLGLSFQIEKHGDTFKITVQ,1.23
16,TYTFKVDNKDQAKKAAKWAKTLGLSFQIEKHGDTFKITVQ,2.16
17,TYTFKVDNKDQAKKAAKWAKILGLSFQIEKHGDTFKITVQ,1.99
18,TYTFKVDNKDQAKKAAKWAKHLGLSFQIEKHGDTFKITVQ,2.16
19,TYTFKVDNKDQAKKAAKWAKELGLSFQIEKHGDTFKITVQ,2.02
20,TYTFKVDNKDQAKKAAKWAKDLGLSFQIEKHGDTFKITVQ,1.89
21,TYTFKVDNKDQAKKAAKWAKMLGLSFQIEKHGDTFKITVQ,2.4

row,Variant,folding stability dG [kcal/mol]
1,TYTFKVDNKDQAKKAAKWAKRLGLSFQIEKHGDTFKITVQ,2.49
2,TYTFKVDNKDQAKKAAKWAKWLGLSFQIEKHGDTFKITVQ,2.19
3,TYTFKVDNKDQAKKAAKWAKLLGLSFQIEKHGDTFKITVQ,2.15
4,TYTFKVDNKDQAKKAAKWAKYLGLSFQIEKHGDTFKITVQ,2.02
5,TYTFKVDNKDQAKKAAKWAKSLGLSFQIEKHGDTFKITVQ,2.43
6,TYTFKVDNKDQAKKAAKWAKGLGLSFQIEKHGDTFKITVQ,2.12
7,TYTFKVDNKDQAKKAAKWAKFLGLSFQIEKHGDTFKITVQ,1.98
8,TYTFKVDNKDQAKKAAKWAKNLGLSFQIEKHGDTFKITVQ,2.17
9,TYTFKVDNKDQAKKAAKWAKVLGLSFQIEKHGDTFKITVQ,1.89
10,TYTFKVDNKDQAKKAAKWAKQLGLSFQIEKHGDTFKITVQ,2.24
11,TYTFKVDNKDQAKKAAKWAKALGLSFQIEKHGDTFKITVQ,2.41
12,TYTFKVDNKDQAKKAAKWAKPLGLSFQIEKHGDTFKITVQ,-0.644
13,TYTFKVDNKDQAKKAAKWAKKFGLSFQIEKHGDTFKITVQ,2.08
14,TYTFKVDNKDQAKKAAKWAKKSGLSFQIEKHGDTFKITVQ,1.56
15,TYTFKVDNKDQAKKAAKWAKKMGLSFQIEKHGDTFKITVQ,2.54
16,TYTFKVDNKDQAKKAAKWAKKWGLSFQIEKHGDTFKITVQ,2.21
17,TYTFKVDNKDQAKKAAKWAKKVGLSFQIEKHGDTFKITVQ,1.78
18,TYTFKVDNKDQAKKAAKWAKKQGLSFQIEKHGDTFKITVQ,2.14
19,TYTFKVDNKDQAKKAAKWAKKNGLSFQIEKHGDTFKITVQ,2.32
20,TYTFKVDNKDQAKKAAKWAKKAGLSFQIEKHGDTFKITVQ,2.08

# — the MegaScale stability set (Tsuboyama et al. 2023)
